In assay [1] the target is human telomeric nucleosome core particle (teloNCP), P68431;P62805;P04908;P06899. As to the kind of experiment: EMSA. To be noted: chain shown with the change, triplicate; for response: read off a plot; for EC50: titration 0, 23, 36, 55, 85, 130, 200 nM TRF1core against teloNCP. A general note: A gel shift assay detects complexes by their altered migration in electrophoresis.

The target in the next assay is T1, TRF1 (human), P54274.
T1 chain: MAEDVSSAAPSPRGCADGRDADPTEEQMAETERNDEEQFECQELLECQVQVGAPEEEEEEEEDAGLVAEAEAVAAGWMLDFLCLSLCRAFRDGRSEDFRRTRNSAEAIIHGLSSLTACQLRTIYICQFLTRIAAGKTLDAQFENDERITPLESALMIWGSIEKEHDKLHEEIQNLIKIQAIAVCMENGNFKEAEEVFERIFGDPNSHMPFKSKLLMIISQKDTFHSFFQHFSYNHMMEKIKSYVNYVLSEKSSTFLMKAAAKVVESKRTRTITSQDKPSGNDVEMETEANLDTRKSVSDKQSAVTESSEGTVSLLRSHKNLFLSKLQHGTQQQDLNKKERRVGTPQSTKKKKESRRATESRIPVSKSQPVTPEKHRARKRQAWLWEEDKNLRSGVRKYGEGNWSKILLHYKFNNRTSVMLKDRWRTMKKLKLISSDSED
As to the kind of experiment: native MS; purified TRF1core (co-expressed in Sf9, co-purified through MBP on TIN2) at 20 uM, dialysed into 750 mM ammonium acetate pH 8.0, 1 mM DTT. The following applies: remark: other sources report otherwise.

Where [2] appears, read: point at 55 nM TRF1core, parent: est. 79.

Substitutions are numbered along the chain they refer to. Names may count otherwise.

B1: wild-type MBP-tagged TRF1core (TRF1-TIN2-TPP1), P54274;Q9BSI4 S434D; S435D; S437D (protein)
chain 1: T1 chain with S434D, S435D, S437D
chain 2: MATPLVAGPAALRFAAAASWQVVRGRCVEHFPRVLEFLRSLRAVAPGLVRYRHHERLCMGLKAKVVVELILQGRPWAQVLKALNHHFPESGPIVRDPKATKQDLRKILEAQETFYQQVKQLSEAPVDLASKLQELEQEYGEPFLAAMEKLLFEYLCQLEKALPTPQAQQLQDVLSWMQPGVSITSSLAWRQYGVDMGWLLPECSVTDSVNLAEPMEQNPPQQQRLALHNPLPKAKPGTHLPQGPSSRTHPEPLAGRHFNLAPLGRRRVQSQWASTRGGHKERPTVMLFPFRNLGSPTQVISKPESKEEHAIYTADLAMGTRAASTGKSKSPCQTLGGRALKENPVDLPATEQKENCLDCYMDPLRLSLLPPRARKPVCPPSLCSSVITIGDLVLDSDEEENGQGEGKESLENYQKTKFDTLIPTLCEYLPPSGHGAIPVSSCDCRDSSRPL
chain 3: MAGSGRLVLRPWIRELILGSETPSSPRAGQLLEVLQDAEAAVAGPSHAPDTSDVGATLLVSDGTHSVRCLVTREALDTSDWEEKEFGFRGTEGRLLLLQDCGVHVQVAEGGAPAEFYLQVDRFSLLPTEQPRLRVPGCNQDLDVQKKLYDCLEEHLSESTSSNAGLSLSQLLDEMREDQEHQGALVCLAESCLTLEGPCTAPPVTHWAASRCKATGEAVYTVPSSMLCISENDQLILSSLGPCQRTQGPELPPPDPALQDLSLTLIASPPSSPSSSGTPALPGHMSSEESGTSISLLPALSLAAPDPGQRSSSQPSPAICSAPATLTPRSPHASRTPSSPLQSCTPSLSPRSHVPSPHQALVTRPQKPSLEFKEFVGLPCKNRPPFPRTGATRGAQEPCSVWEPPKRHRDGSAFQYEYEPPCTSLCARVQAVRLPPQLMAWALHFLMDAQPGSEPTPM
For the molecule B1, the response in assay [1] (setting [2]) is 91 % Bound. Also, the EC50 – broadly, the concentration that produces a half-maximal response – in assay [1] stood at 30.3 nM.

B2: wild-type MBP-tagged TRF1core (TRF1-TIN2-TPP1), P54274;Q9BSI4 L384A; W385A; K389A (protein)
chain 1: AEDVSSAAPSPRGCADGRDADPTEEQMAETERNDEEQFECQELLECQVQVGAPEEEEEEEEDAGLVAEAEAVAAGWMLDFLCLSLCRAFRDGRSEDFRRTRNSAEAIIHGLSSLTACQLRTIYICQFLTRIAAGKTLDAQFENDERITPLESALMIWGSIEKEHDKLHEEIQNLIKIQAIAVCMENGNFKEAEEVFERIFGDPNSHMPFKSKLLMIISQKDTFHSFFQHFSYNHMMEKIKSYVNYVLSEKSSTFLMKAAAKVVESKRTRTITSQDKPSGNDVEMETEANLDTRKSVSDKQSAVTESSEGTVSLLRSHKNLFLSKLQHGTQQQDLNKKERRVGTPQSTKKKKESRRATESRIPVSKSQPVTPEKHRARKRQAWAAEEDANLRSGVRKYGEGNWSKILLHYKFNNRTSVMLKDRWRTMKKLKLISSDSED
chain 2: B1 chain 2
chain 3: B1 chain 3
In the case of B2, the response was 68 % Bound in assay [1] (setting [2]) and 97 % Bound in assay [1] (point at 200 nM TRF1core, parent: est. 100). For the same molecule, in assay [1], the concentration giving a half-maximal response (EC50) is 42.4 nM.

B3: TRF1, P54274 1-439 (natural protein)
chain: T1 chain
modifications: here or on the partner: phosphoserine at 434, 435 and 437 (likely by endogenous insect cell kinases; S435 phosphorylated in 87.3% of the identified peptides); phosphoserine at 434, 435 and 437 (likely by endogenous insect cell kinases; S435 phosphorylated in 87.3% of the identified peptides)
Regarding B3, the stoichiometry N (usually a count of units in the complex or per binding partner) with TRF1 (human), P54274 stood at 2.
